In the Immune Epitope Database (IEDB):
pKd: −log10 of the molar value.

Key:
[1] = biological target: HLA-A*02:01; assay: IEDB peptide-MHC binding, purified MHC/direct/fluorescence; filed as Kd, often an IC50 or EC50 that approximates it; ≥ and ≤ were set here for values at or beyond the usual limits of such assays
[2] = biological target: HLA-A*69:01; assay: as above
[3] = biological target: HLA-A*03:01; assay: as above
[4] = biological target: HLA-A*02:02; assay: IEDB peptide-MHC binding, purified MHC/competitive/radioactivity; filed as Kd, often an IC50 or EC50 that approximates it; ≥ and ≤ were set here for values at or beyond the usual limits of such assays
[5] = biological target: HLA-A*02:03; assay: as above
[6] = biological target: HLA-A*02:06; assay: as above
[7] = biological target: HLA-A*30:01; assay: as above
[8] = biological target: HLA-A*30:02; assay: as above
[9] = biological target: HLA-A*26:01; assay: as above
[10] = biological target: HLA-A*24:02; assay: as above
[11] = biological target: HLA-A*01:01; assay: as above
[12] = biological target: HLA-A*23:01; assay: as above
[13] = biological target: HLA-B*15:01; assay: IEDB peptide-MHC binding, purified MHC/direct/fluorescence; filed as Kd, often an IC50 or EC50 that approximates it; ≥ and ≤ were set here for values at or beyond the usual limits of such assays
[14] = biological target: HLA-B*44:02; assay: IEDB peptide-MHC binding, purified MHC/competitive/radioactivity; filed as Kd, often an IC50 or EC50 that approximates it; ≥ and ≤ were set here for values at or beyond the usual limits of such assays; conditions: source organism: Dengue virus 3 Martinique/1243/1999
[15] = biological target: HLA-A*03:01; assay: as above; conditions: source organism: Dengue virus 1 Brazil/97-11/1997
[16] = biological target: HLA-A*29:02; assay: as above
[17] = biological target: HLA-A*01:01; assay: IEDB peptide-MHC binding, purified MHC/direct/fluorescence; filed as Kd, often an IC50 or EC50 that approximates it; ≥ and ≤ were set here for values at or beyond the usual limits of such assays
[18] = source organism: SARS coronavirus Tor2
[19] = source organism: Dengue virus 4 Philippines/H241/1956
[20] = source organism: Dengue virus 2 Jamaica/1409/1983
[21] = source organism: Vaccinia virus WR
[22] = source organism: Dengue virus 1 Brazil/97-11/1997
[23] = source organism: Dengue virus 3 Martinique/1243/1999
[24] = source organism: Dengue virus 4 Dominica/814669/1981
[25] = source organism: Vibrio vulnificus
[26] = source organism: Mammarenavirus guanaritoense
[27] = source organism: Mammarenavirus machupoense
[28] = source organism: Salmonella enterica subsp. enterica serovar Paratyphi A
[29] = source organism: Serratia proteamaculans
[30] = source organism: Lassa virus Josiah

Which results are given for GLMWLSYFV?
pKd ([1]; source organism: SARS-CoV1): 5.50; pKd ([2]; source organism: SARS-CoV1): 6.46; pKd ([3]; source organism: SARS-CoV1): ≤ 4.48; pKd [4, 18]: 9.70; pKd [5, 18]: 9.09; pKd [6, 18]: 9.01

What does the source list for RTIMAVLFV?
pKd [7, 19]: 6.87; pKd [6, 19]: 7.71

VDYMPVMKRY was tested. Which pKd [8, 19] did it give?
Its pKd is 7.12.

With AWNSLEVEDY as the sequence, how does the pKd [8, 20] read?
The pKd was 6.21.

How did the pKd [9, 20] turn out when SSVNMISRM was run?
The pKd was 5.87.

KARCNHLTK was tested. Which pKd [7, 21] did it give?
Its pKd is 9.67.

LFSGVSWTM was tested. Which pKd [10, 22] did it give?
Its pKd is 6.35.

What does the source list for FTDPASIAA?
pKd [6, 20]: 7.49; pKd [11, 20]: 8.14

QWFVERNMVI was tested. Which pKd [12, 23] did it give?
Its pKd is 6.95.

And the pKd [10, 23]?
Its pKd is 6.92.

With KVKNHIPNI as the sequence, how does the pKd [7, 21] read?
Its pKd is 9.16.

How did the pKd [7, 20] turn out when KVSCTILAA was run?
The pKd was 7.17.

LLFLPKAAY was tested. Which pKd ([13]; source organism: Mammarenavirus juninense) did it give?
The pKd was 7.00.

How did the pKd [10, 24] turn out when DFGSVGGLF was run?
Its pKd is 5.58.

How did the pKd [7, 22] turn out when LRFLAIPPTA was run?
Its pKd is 5.50.

How did the pKd [1, 25] turn out when RLSDPRFSQ was run?
The pKd was at most 4.70.

What about the pKd [2, 25] of the same sequence?
Its pKd is 6.92.

With TSRNNHLPA as the sequence, how does the pKd ([7]; source organism: Vaccinia virus Copenhagen) read?
Its pKd is 7.82.

With GDNALKINW as the sequence, how does the pKd [14] read?
Its pKd is 6.82.

HEMYWISNG was tested. Which pKd [14] did it give?
The pKd was 6.31.

With VVRVQRPAK as the sequence, how does the pKd [7, 22] read?
Its pKd is 7.65.

And the pKd [15]?
Its pKd is 6.90.

NFGTFYEHI was tested. Which pKd [16, 26] did it give?
Its pKd is 6.40.

What about the pKd [12, 26] of the same sequence?
Its pKd is 6.35.

What about the pKd [10, 26] of the same sequence?
The pKd was 5.71.

With LCLIPTAMAF as the sequence, how does the pKd [12, 19] read?
The pKd was 5.97.

STVSQLAKRF was tested. Which pKd ([9]; source organism: Dengue virus 1 Nauru/West Pac/1974) did it give?
Its pKd is 5.44.

VFNGTSWFI was tested. Which pKd [16, 18] did it give?
Its pKd is at most 4.34.

And the pKd [12, 18]?
The pKd was at most 4.11.

And the pKd [8, 18]?
The pKd was at most 4.03.

And the pKd [9, 18]?
The pKd was at most 4.11.

What about the pKd [10, 18] of the same sequence?
The pKd was at most 3.97.

What about the pKd [11, 18] of the same sequence?
The pKd was at most 4.11.

How did the pKd ([1]; source organism: Homo sapiens) turn out when ALPPPPPPP was run?
Its pKd is 4.90.

How did the pKd [16, 27] turn out when WIEFTNFKV was run?
Its pKd is 5.09.

And the pKd [12, 27]?
Its pKd is at most 4.11.

And the pKd [8, 27]?
Its pKd is at most 4.30.

And the pKd [9, 27]?
Its pKd is at most 4.11.

What about the pKd [10, 27] of the same sequence?
Its pKd is at most 4.11.

What about the pKd [11, 27] of the same sequence?
Its pKd is at most 4.11.

FMFGPTIYY was tested. Which pKd ([3]; source organism: Entamoeba histolytica HM-1:IMSS) did it give?
The pKd was 7.37.

With HTSSMRGVYY as the sequence, how does the pKd [16, 18] read?
The pKd was 7.75.

And the pKd [12, 18]?
The pKd was at most 4.15.

And the pKd [8, 18]?
The pKd was 8.47.

What about the pKd [9, 18] of the same sequence?
Its pKd is 7.28.

What about the pKd [10, 18] of the same sequence?
The pKd was at most 4.33.

And the pKd [11, 18]?
The pKd was 7.23.

With TWLVHKQWF as the sequence, how does the pKd [12, 19] read?
The pKd was 6.55.

What about the pKd [10, 19] of the same sequence?
The pKd was 6.52.

With HVFQEYRLK as the sequence, how does the pKd [7, 21] read?
Its pKd is 7.58.

How did the pKd [10, 20] turn out when HWPKSHTLW was run?
The pKd was 5.93.

RAIASMIMY was tested. Which pKd [7, 21] did it give?
Its pKd is 7.15.

ALTLATGPIT was tested. Which pKd [7, 23] did it give?
The pKd was 6.80.

With AQLPRWVAT as the sequence, how does the pKd [1, 28] read?
The pKd was 4.70.

And the pKd [2, 28]?
The pKd was 5.15.

With QSDTVFDYY as the sequence, how does the pKd [12, 21] read?
The pKd was at most 4.49.

And the pKd [10, 21]?
The pKd was at most 4.14.

LFHAFFGAL was tested. Which pKd [16, 26] did it give?
The pKd was 5.44.

What about the pKd [12, 26] of the same sequence?
The pKd was 4.90.

And the pKd [10, 26]?
The pKd was at most 4.50.

Which results are given for FFFVYENAF?
pKd [16, 18]: ≤ 4.62; pKd [12, 18]: ≤ 4.62; pKd [8, 18]: ≤ 4.01; pKd [9, 18]: 5.03; pKd [10, 18]: ≤ 4.22; pKd [11, 18]: 5.57

With GAKIIHRYA as the sequence, how does the pKd [7, 21] read?
Its pKd is 6.93.

With YSQVNPLTL as the sequence, how does the pKd [11, 22] read?
Its pKd is 6.00.

How did the pKd [8, 19] turn out when AGGLLLAAY was run?
Its pKd is 7.22.

RSKNTIIIA was tested. Which pKd [7, 21] did it give?
The pKd was 9.79.

EKTQAIDGEF was tested. Which pKd [9, 24] did it give?
Its pKd is at most 4.16.

With GMPNWCVSI as the sequence, how does the pKd [1, 29] read?
The pKd was 7.61.

And the pKd [2, 29]?
The pKd was 5.47.

With PTSEIQLTDY as the sequence, how does the pKd [9, 22] read?
The pKd was at most 4.16.

What about the pKd [11, 22] of the same sequence?
Its pKd is 6.59.

INRFTMKHK was tested. Which pKd [7, 20] did it give?
The pKd was 5.10.

With KARNTPFNM as the sequence, how does the pKd ([7]; source organism: Dengue virus 2 Peru/IQT2913/1996) read?
Its pKd is 6.77.

With KTIWEIPQK as the sequence, how does the pKd [7, 21] read?
The pKd was 7.93.

How did the pKd [7, 20] turn out when LTTRNGEPHM was run?
The pKd was 4.86.

With YLAENTFVV as the sequence, how does the pKd ([2]; source organism: Mycobacterium tuberculosis) read?
The pKd was 7.80.

How did the pKd ([11]; source organism: Dengue virus 1 Singapore/S275/1990) turn out when VTARWLWGFL was run?
Its pKd is 5.06.

How did the pKd ([17]; source organism: Influenza A virus (A/duck/Ontario/05/00 (H3N2))) turn out when RSKAFSNCY was run?
The pKd was at most 4.70.

How did the pKd [7, 22] turn out when GGMLVRNPLS was run?
Its pKd is 5.37.

How did the pKd ([17]; source organism: Giardia lamblia ATCC 50803) turn out when KVDWNQFTY was run?
Its pKd is 8.70.

With YQPSSGCYI as the sequence, how does the pKd [16, 30] read?
The pKd was 4.84.

And the pKd [12, 30]?
The pKd was 5.27.

What about the pKd [10, 30] of the same sequence?
The pKd was 5.14.

How did the pKd [12, 20] turn out when QVGTYGLNTF was run?
Its pKd is 6.10.

With WQGDTGITY as the sequence, how does the pKd ([13]; source organism: Mycobacterium tuberculosis variant bovis) read?
Its pKd is 6.10.

How did the pKd [9, 20] turn out when TTMRGAKRM was run?
Its pKd is 5.09.

How did the pKd [4, 21] turn out when ILATLNTLIT was run?
The pKd was 8.16.

What about the pKd [5, 21] of the same sequence?
The pKd was 7.91.

What about the pKd [6, 21] of the same sequence?
Its pKd is 6.20.

SITLATGPLT was tested. Which pKd [7, 22] did it give?
Its pKd is 5.41.

FTDENKWKS was tested. Which pKd [11, 20] did it give?
Its pKd is 5.28.

ITDDSDDYEL was tested. Which pKd [4, 21] did it give?
The pKd was 6.16.

What about the pKd [5, 21] of the same sequence?
The pKd was 4.92.

And the pKd [6, 21]?
Its pKd is 7.31.

How did the pKd ([9]; source organism: Dengue virus 2 16681-PDK53) turn out when EKMEALQRKY was run?
Its pKd is 5.20.
